Source: patent publication US20250144035A1, “Method of Increasing Epithelial Permeability Using Nanoparticles” (Carnegie Mellon University, priority 2017, published 2025)

Columns and labels:
mice = assay: Intestinal insulin delivery, blood glucose; type: in vivo
[1] = Procedure: Following ten hours of fasting, mice were orally gavaged with PBS (for control) or nanoparticle suspensions (100 mg/kg unless otherwise specified). Two hours later, their initial blood sugar was measured, and the animals were placed under anesthesia. Their intestines were surgically exposed, and insulin was injected at the predetermined dose (1 unit per kg body weight unless otherwise specified) into the duodenum. The mice were closed and secured with tissue adhesive, then kept under anesthesia as their blood sugar levels were monitored each hour for five hours. For comparison to the current standard of insulin delivery, subcutaneous injections were given to additional mice, into the scruff on their necks. To determine specific insulin concentrations, blood samples were collected and separated via centrifugation. The serum was subjected to ELISA analysis for human insulin (LifeTechnologies®, Carlsbad, CA) per the instructions of the kit manufacturer.

## insulin
mice; 1 U/kg subcutaneous
  blood glucose response: pronounced, but brief response
mice; increasing intestinal insulin dose, constant particle administration of 100 mg/kg
  blood glucose, response to insulin dose: increased magnitude and duration of hypoglycemia
[1]; intestinal insulin along with nanoparticles
  blood insulin concentration: slight elevations in blood insulin that persisted for at least four hours
[1]; subcutaneous injection
  return of blood insulin to normal levels: shortly after two hours
  time of spike in blood insulin concentration: ≤ 30 min
